Patent US20250304628A1
pKd: −log10 of the molar value.

What was measured:
IgG [1] = experiment: dynamic binding capacity at 10% breakthrough; ligand coupled to agarose medium; after 24 h of 1 M NaOH treatment (2 h cycles)
IgG [2] = experiment: dynamic binding capacity at 10% breakthrough; ligand coupled to agarose medium; after 24 h of 1 M NaOH treatment, relative to initial capacity
IgG [3] = experiment: dynamic binding capacity at 10% breakthrough; ligand coupled to agarose medium, IgG 1 mg/ml loaded, before alkali treatment
IgG [4] = experiment: SPR, Biacore 4000; IgG immobilised on CM5 chip, mutant as analyte

Row | Substance | Remaining IgG capacity after 24 hours (dynamic binding capacity at 10% breakthrough) (IgG [1]) [mg/mL] | Remaining IgG capacity after 24 hours (% of initial) (IgG [2]) [%] | Initial IgG capability (dynamic binding capacity at 10% breakthrough) (IgG [3]) [mg/mL] | pKd (IgG [4])
1 | Z(E15D)4 (designed binder) | 21.6 | 14.9 | 145 | 8.95
2 | Z(E15F)4 (designed binder) | 35.5 | 22.8 | 155 | 8.40
3 | Z(E15I)4 (designed binder) | 33 | 17.7 | 187 | 8.59
4 | Z(E15L)4 (designed binder) | 63 | 40.1 | 157 | 8.90
5 | Z(E15S)4 (designed binder) | 72 | 43.6 | 165 | 8.75
6 | Z(E15T)4 (designed binder) | 45.5 | 25.9 | 176 | 8.33
7 | Z(E15V)4 (designed binder) | 33.2 | 24.9 | 133 | 8.58
8 | Z(E15W)4 (designed binder) | 38.1 | 23.2 | 165 | 8.81
9 | Z(E15Y)4 (designed binder) | 48.6 | 28 | 174 | 8.54
10 | Z(N3L, N6E, Q9F, E15L, N23I)4 (designed binder) | 65 | 44 | 148 | –
11 | Z(N3L, N6E, Q9I, E15I, N23I)4 (designed binder) | 57.2 | 35.4 | 161 | 8.59
12 | Z(N3L, N6E, Q9I, E15I, N23I)6 (designed binder) | 87.8 | 58.8 | 149 | –
13 | Z(N3L, N6L, Q9F, E15I, N23V)4 (designed binder) | 68.4 | 45.2 | 151 | –
14 | Z(N3L, N6L, Q9F, E15I, N23V)6 (designed binder) | 112 | 63.9 | 175 | –
15 | Z(N3L, N6L, Q9I, E15L)4 (designed binder) | 70.2 | 39.2 | 179 | 8.68
16 | Z(N3L, N6L, Q9I, E15L, N23V)4 (designed binder) | 45.3 | 28.5 | 159 | 8.63
17 | Z(N3L, Q9I, E15L, N23V)4 (designed binder) | 42.1 | 25.4 | 166 | 8.36
18 | Z(N3V, N6E, Q9I, E15L)4 (designed binder) | 110 | 62.2 | 177 | 8.57
19 | Z(N3V, N6L, Q9F, E15V, N23Y)4 (designed binder) | 67.9 | 40.1 | 169 | 8.56
20 | Z(N3V, N6L, Q9I, E15V, N23Y)6 (designed binder) | 103 | 54.2 | 190 | –
21 | Z(N6L, Q9F, E15I, N23V)4 (designed binder) | 68.2 | 36.7 | 186 | 8.40
22 | Z(Q9F)4 (designed binder) | 37.2 | 20.4 | 182 | 8.76
23 | Z(Q9I)4 (designed binder) | 39.6 | 27.6 | 143 | –
24 | Z(Q9M)4 (designed binder) | 42.6 | 31.5 | 136 | 8.61
